Measurements reported in patent US20260070974A1 (NONA BIOSCIENCES SUZHOU, published 2026).
“And” between values parts separate entries of the source, which are not always exact repeats. Equal entries are not always repeated.

Assays:
[1] = target: T1, cynomolgus monkey Siglec-15-his protein (Acrobiosystems, Cat #: SG5-C52H6) (cynomolgus monkey, UniProt Q6ZMC9 20-263 (human entry)); assay: ELISA, coated cynomolgus monkey Siglec-15-his
T1 construct: Bought protein; also called cynomolgus monkey Siglec-15 protein; not shown: his tag
T1 chain: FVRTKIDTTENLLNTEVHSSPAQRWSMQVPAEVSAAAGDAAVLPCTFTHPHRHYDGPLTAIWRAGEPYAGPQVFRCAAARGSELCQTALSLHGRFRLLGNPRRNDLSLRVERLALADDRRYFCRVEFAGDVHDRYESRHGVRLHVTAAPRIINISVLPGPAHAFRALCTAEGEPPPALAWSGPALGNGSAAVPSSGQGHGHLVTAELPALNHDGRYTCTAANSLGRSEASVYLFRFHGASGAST
Experimental: […] cynomolgus monkey Siglec-15-his protein (Acrobiosystems, Cat #: SG5-C52H6) dissolved in PBS was added to an ELISA plate at 100 μL/well for coating and the plate was incubated overnight at 4° C. The ELISA plate was then blocked with PBST (PBS+0.05% Tween 20) containing 2% BSA at 200 μL/well and incubated at 37° C. for 1 h. The ELISA plate was washed 4 times with PBST. The anti-Siglec-15 antibody diluted in a gradient (5-fold dilution, starting concentration: 6.67 nM) was added to the ELISA plate at 100 µL/well and the plate was incubated at 37° C. for 1 h. The ELISA plate was washed 4 times with PBST. The goat anti-human IgG (H+L)-HRP (1:5000, Jackson, Cat #: 109-035-088) was added at 100 μL/well and the plate was incubated at 37° C. for 1 h. The ELISA plate was washed 4 times with PBST. The TMB substrate (Biopanda, Cat #: TMB-S-003) was added at 100 μL/well, and the plate was incubated at room temperature for 5 min, and then the stop buffer (Solarbio, Cat #: C1058) was added at 100 μL/well to stop the reaction.

[2] = target: T2, cynomolgus monkey Siglec-15 on CHO-K1/cynomolgus monkey Siglec-15 cells (cynomolgus monkey, UniProt Q6ZMC9 20-328 (human entry)); assay: flow cytometry on CHO-K1/cynomolgus monkey Siglec-15 cells
T2 chain: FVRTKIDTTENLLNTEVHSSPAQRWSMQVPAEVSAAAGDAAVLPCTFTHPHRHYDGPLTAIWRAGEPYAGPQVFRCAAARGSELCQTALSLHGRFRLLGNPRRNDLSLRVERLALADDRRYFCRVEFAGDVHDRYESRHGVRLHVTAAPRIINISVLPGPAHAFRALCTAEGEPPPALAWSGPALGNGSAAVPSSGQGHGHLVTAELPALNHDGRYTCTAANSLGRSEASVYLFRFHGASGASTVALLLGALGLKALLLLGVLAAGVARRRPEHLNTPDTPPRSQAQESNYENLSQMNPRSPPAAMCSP
Experimental: cDNAs encoding cynomolgus monkey Siglec-15 (the amino acid sequence of which is set forth in SEQ ID NO: 155) were obtained by gene synthesis and cloned into the expression vector pcDNA3.1, and then the expression vector was transfected into CHO-K1 cells to construct CHO-K1/cynomolgus monkey Siglec-15 cells expressing cynomolgus monkey Siglec-15. CHO-K1/cynomolgus monkey Siglec-15 cells were adjusted to a density of 1×10⁶/mL with PBS, and the cell suspension was added to a 96-well V-bottom plate at 100 µL/well. The 96-well V-bottom plate was centrifuged at 1000 rpm for 5 min and washed once with PBS+2% FBS. The cells were resuspended in 100 μL of antibody diluted in a gradient (5-fold dilution, starting concentration: 500 nM) and incubated at 4° C. for 1 h, and PR300066 and hIgG1 were used as positive control and negative control, respectively. After 1 h, the cells were washed twice with PBS+2% FBS. The cells were incubated with 100 μL of Alexa Fluor 488 goat anti-human IgG (Jackson, Cat #: 109-545-098) at 4° C. for 1 h in the dark and then washed twice with PBS+2% FBS. The cells were then resuspended in 200 μL of PBS+2% FBS. The fluorescence intensity of the cells was analyzed using a BD FACS Canto™ II flow cytometer.

[3] = target: T3, human PD-L1/B7-H1-his protein (Acrobiosystems, Cat PD1-H5229) (human, UniProt Q9NZQ7 19-238); assay: ELISA on coated human PD-L1/B7-H1-his, antibody at 100 nM and 10 nM, goat anti-human IgG-HRP, OD450
T3 construct: Bought protein; not shown: his tag
T3 sequence (Q9NZQ7 19-238 limits assumed): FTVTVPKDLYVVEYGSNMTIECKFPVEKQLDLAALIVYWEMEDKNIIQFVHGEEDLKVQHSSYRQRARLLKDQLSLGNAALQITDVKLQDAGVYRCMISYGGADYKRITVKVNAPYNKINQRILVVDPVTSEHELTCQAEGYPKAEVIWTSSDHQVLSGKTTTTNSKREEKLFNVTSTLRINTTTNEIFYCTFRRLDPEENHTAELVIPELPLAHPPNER
Experimental: Human Siglec-15 ECD-his protein (Acrobiosystems, Cat SG5-H52H3), human Siglec-2-his protein (Acrobiosystems, Cat CD2-H52H8), human Siglec-4a-his protein (Acrobiosystems, Cat MAG-H52H8), human Siglec-3-his protein (Acrobiosystems, Cat CD3-H5226), human Siglec-10-his protein (Acrobiosystems, Cat SIO-H52H9), and human PD-L1/B7-H1-his protein (Acrobiosystems, Cat PD1-H5229), each at 1 μg/mL and dissolved in PBS, were each added to an ELISA plate at 100 μL/well for coating and the plate was incubated overnight at 4° C. The ELISA plate was then blocked with PBST (PBS+0.05% Tween 20) containing 2% BSA at 200 μL/well and incubated at 37° C. for 1 h. The ELISA plate was washed 4 times with PBST. The anti-Siglec-15 antibody diluted in a gradient (concentrations: 100 nM and 10 nM) was added to the ELISA plate at 100 μL/well and the plate was incubated at 37° C. for 1 h. The ELISA plate was washed 4 times with PBST. The goat anti-human IgG (H+L)-HRP (1:5000, Jackson, Cat 109-035-088) was added at 100 μL/well and the plate was incubated at 37° C. for 1 h. The ELISA plate was washed 4 times with PBST. The TMB substrate (Biopanda, Cat TMB-S-003) was added at 100 μL/well, and the plate was incubated at room temperature for 5 min, and then the stop buffer (Solarbio, Cat #: C1058) was added at 100 μL/well to stop the reaction.

Binder	EC50 [1]	EC50 [2]	binding result [3]	Maximum (MFI) [2] [MFI]
PR300066 (Tab) (antibody, human IgG1, kappa, V domains shown, variable region from clone 5G12 of WO 2018/057735A1, on human IgG1/kappa constant regions; also called 5G12) VH: QVQLQQPGAELVKPGASVKMSCKASGYTFTSYWITWVIQRPGQGLEWIGDIYCGSDTMHYNEKFKNKATLTVDTSSSTAYMQLSSLTSEDSAVYYCARWWDYGSSYDYFDYWGQGTTLTVSS VL: DIKMTQSPSSMYASLGERVTITCKASQDINSYLSWFQQKPGKSPKTLIYRANRLVDGVPSRFSGSGSGQDYSLTISSLEYEDMGIYYCLQYDEFPYTFGGGTKLEIKR	0.025 nM and 0.012 nM	1.5 nM and 2.19 nM	no binding (tested: 100 nM)	–
PR301289 (antibody, human IgG1, kappa, V domains shown, Parent of the PTM variants PR301289-1 and -2) VH: QVQLVQSGAEVKKPGASVKVSCRASGYTFTSYDINWVRQATGQGLEWMGWMNPHSGDTGYAQNFQGRVTMTWNTSISTAYMELSSLRSEDTAVYYCARRRVGVYYYGMDVWGQGTTVTVSS VL: ENVLTQSPGTLSLSPGERATLSCRASQSVSSSYFGWYQQKPGQAPRLLIYGASSRATGIPDRFSGSGSGTDFTLTISRLEPEDFAVYYCQQYGSSPITFGQGTRLEIKR	0.104 nM	1.36 nM	no binding (tested: 100 nM)	5420
PR301285 (antibody, human IgG1, kappa, V domains shown) VH: QVQLQESGPGLVKPSETLSLTCTVSGGSMISYYWSWLRQPPGKGLEWIGYIYYSGNTNYNPSLKSRITIAVDTSKNQFSLKLNSVTAADTAVYYCARERELHPYYFDYWGQGTLVTVSS VL: DIQLTQSPSFLSASVGDRVTITCRASQGIDNYLAWYQQKPGKAPKVLIYAASTLQSGVPSRFSGSGSGTEFTLTISSLQPEDFATYYCQQLNSYPLTFGGGTKVEIKR	0.038 nM	0.889 nM	no binding (tested: 100 nM)	5660
PR301286 (antibody, human IgG1, kappa, V domains shown, Parent of the PTM variants PR301286-1, -3, -5, -6, -7) VH: QVQLVESGGGVVQPGKSLRLSCAASGFTFSSYGMHWVRQAPGKGLEWVAVIWIDGSNRYYAASVKGRFTISRDNSKNTLYLQMNSLRAEDTAVYYCTRGYGDYAYVMDVWGQGASVTVSS VL: DIVMTQSPLSLPVTPGEPASISCRSSQSLLPGNGYNYLDWYLQKPGQSPQLLIYLGSNRASGVPDRFSGSGSGTDFTLKISRVEAEDVGIYYCMQALQSPLTFGGGTKVEIKR	0.09 nM	3.39 nM	no binding (tested: 100 nM)	5860
